# Data taken from patent US20110293511A1 (LUDWIG INSTITUTE FOR CANCER RESEARCH, published 2011).
# Ends that are not written are not given here. * marks the point of attachment. Biotin = O=C1N[C@H]2[C@H](CS[C@H]2CCCCC(=O)*)N1
# B1: chimeric antibody ch806 (antibody, human IgG1, V domains shown)
# VH: DVQLQESGPSLVKPSQSLSLTCTVTGYSITSDFAWNWIRQFPGNKLEWMGYISYSGNTRYNPSLKSRISITRDTSKNQFFLQLNSVTIEDTATYYCVTAGRGFPYWGQGTLVTVSA
# VL: DILMTQSPSSMSVSLGDTVSITCHSSQDINSNIGWLQQRPGKSFKGLIYHGTNLDDEVPSRFSGSGSGADYSLTISSLESEDFADYYCVQYAQFPWTFGGGTKLEIKR
# notes: also called chAb806
# B2: mAb806 (antibody, V domains shown)
# VH: B1 VH
# VL: B1 VL
# notes: murine IgG2b
# What was measured:
# [1] = molecular target: T1, anti-idiotype antibody LMH-12; test: sandwich ELISA: capture on plate-bound LMH-12 (10 µg/ml), detection with biotinylated LMH-12 and avidin-HRP
# T1 construct: mouse IgG1 kappa; also called clone 5B8; SB8
# [2] = molecular target: T2, de2-7 EGFR unique junctional peptide (human); test: dot-blot immune stain
# T2 construct: non-biotinylated; also called Junction Peptide
# T2 peptide: LEEKKGNYVVTDH-OH
# [3] = molecular target: T3, biotinylated de2-7 specific peptide (Biotin-LEEKKGNYVVTDH) (human); test: ELISA, biotinylated peptide on streptavidin plates
# T3 construct: also called unique de2-7 EGFR peptide
# T3 peptide: Biotin-LEEKKGNYVVTDH
# [4] = molecular target: T4, Peptide C, C-terminal biotinylated de2-7 peptide (human, C-terminal biotin; the reagent list prints it on an added lysine, LEEKKGNYVVTDH(K-Biot)-OH); test: BIAcore, Peptide C on streptavidin chip
# T4 peptide: LEEKKGNYVVTDH
# [5] = molecular target: EGFR fragment 1-176, yeast-displayed (human, UniProt P00533 25-200); test: flow cytometry on yeast displaying the EGFR fragment, % positive cells
# [6] = molecular target: EGFR fragment 475-621, yeast-displayed (human, UniProt P00533 499-645); test: as above
# [7] = molecular target: T5, EGFR fragment 1-294, yeast-displayed (human, UniProt P00533 25-318); test: flow cytometry, indirect immunofluorescence on yeast displaying EGFR fragment 1-294
# T5 construct: range 1-294
Binder,EC50 (read off the curve) [1] [µg/mL],binding result [2],binding result [3],binding result [4],binding result [5],binding result [6],binding result [7]
B1,~0.6,–,–,–,–,–,–
B2,~0.07,no binding,no binding,no binding (tested: 100 nM),no binding (tested: 10 µg/ml (single concentration)),no binding (tested: 10 µg/ml (single concentration)),no binding (tested: 10 µg/ml (single concentration))
